Experimental findings from publication PMC2692298 are described below.

Chain of SDF-1 Lys64Ala (P48061 22-93 K64A): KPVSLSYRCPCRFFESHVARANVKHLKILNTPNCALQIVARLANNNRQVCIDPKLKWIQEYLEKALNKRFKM
Chain of SDF-1 Arg47Glu (P48061 22-93 R68E): as the sequence (P48061 22-93 K64A) above, with A43K, R47E counted along it
Chain of SDF-1 Val49Ala (P48061 22-93 V70A): as the sequence (P48061 22-93 K64A) above, with A43K, V49A counted along it
Chain of SDF-1 Val39Ala (P48061 22-93 V39A): as the sequence (P48061 22-93 K64A) above, with V18A, A43K counted along it
Chain of SDF-1 Glu60Ala (P48061 22-93 E81A): as the sequence (P48061 22-93 K64A) above, with A43K, E60A counted along it
Chain of SDF-1 Lys27Ala (P48061 22-93 K48A): as the sequence (P48061 22-93 K64A) above, with K27A, A43K counted along it
Chain of SDF-1 Glu63Ala (P48061 22-93 E84A): as the sequence (P48061 22-93 K64A) above, with A43K, E63A counted along it
Chain of SDF-1 Arg47Ala (P48061 22-93 R68A): as the sequence (P48061 22-93 K64A) above, with A43K, R47A counted along it
Chain of SDF-1 Lys27Glu (P48061 22-93 K48E): as the sequence (P48061 22-93 K64A) above, with K27E, A43K counted along it

The target of one experiment is CXCR4 on THP-1 cells (human (endogenous in THP-1)) (UniProt P61073).
Chain of CXCR4 on THP-1 cells (human (endogenous in THP-1)) (P61073 whole entry): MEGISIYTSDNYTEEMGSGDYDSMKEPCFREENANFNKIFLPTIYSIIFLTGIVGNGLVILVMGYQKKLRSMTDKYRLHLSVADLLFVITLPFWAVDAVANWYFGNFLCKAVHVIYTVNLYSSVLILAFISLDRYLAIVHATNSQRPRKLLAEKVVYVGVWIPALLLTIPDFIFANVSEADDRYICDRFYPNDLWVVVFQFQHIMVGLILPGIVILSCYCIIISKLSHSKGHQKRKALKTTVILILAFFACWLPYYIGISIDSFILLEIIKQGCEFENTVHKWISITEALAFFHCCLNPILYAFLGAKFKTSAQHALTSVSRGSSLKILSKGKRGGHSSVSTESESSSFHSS
As to “SDF1(L36C/A65C), covalently-locked symmetric dimer (from UniProt P48061 22-93) (ligand)”, the EC50 of Ca2+ mobilization in THP-1 cells amounted to 12.9 nM.

A further experiment shares this target. This is another data set of the same source.
As for “SDF-1 Arg47Ala (from UniProt P48061 22-93) (ligand)”, the EC50 of Ca2+ mobilization in THP-1 cells came to 14.1 nM.

“SDF-1 Val39Ala (from UniProt P48061 22-93) (ligand)” gave an EC50 of Ca2+ mobilization in THP-1 cells of 27.1 nM.

Take “SDF-1 Glu60Ala (from UniProt P48061 22-93) (ligand)”: the EC50 of Ca2+ mobilization in THP-1 cells was 4.1 nM.

The substance “SDF-1 Lys27Glu (from UniProt P48061 22-93) (ligand)” registered an EC50 of Ca2+ mobilization in THP-1 cells of 16.8 nM.

With “SDF-1 Val49Ala (from UniProt P48061 22-93) (ligand)”, the EC50 of Ca2+ mobilization in THP-1 cells was found to be 8.6 nM.

As for “SDF-1 Arg41Ala (from UniProt P48061 22-93) (ligand)”, the EC50 of Ca2+ mobilization in THP-1 cells stood at 4.3 nM.

“SDF-1 Lys27Ala (from UniProt P48061 22-93) (ligand)” showed an EC50 of Ca2+ mobilization in THP-1 cells of 10.1 nM.

“SDF-1 Arg20Ala (from UniProt P48061 22-93) (ligand)” gave an EC50 of Ca2+ mobilization in THP-1 cells of 4.3 nM.

Take “SDF-1 Arg47Glu (from UniProt P48061 22-93) (ligand)”: the EC50 of Ca2+ mobilization in THP-1 cells came out at 654 nM.

“SDF-1 Glu63Ala (from UniProt P48061 22-93) (ligand)” came in with an EC50 of Ca2+ mobilization in THP-1 cells of 3.7 nM.

In turn, “SDF1(H25R) (from UniProt P48061 22-93) (ligand)” showed an EC50 of Ca2+ mobilization in THP-1 cells of 5.1 nM.

Regarding “SDF-1 Lys64Ala (from UniProt P48061 22-93) (ligand)”, the EC50 of Ca2+ mobilization in THP-1 cells was found to be 5 nM.

On to “stromal cell derived factor-1 (SDF-1, also known as CXCL12), wild type (from UniProt P48061 22-93) (ligand)”, for which the EC50 of Ca2+ mobilization in THP-1 cells came to 3.6 nM.
